Experimental findings from article PMC12339742 are described below.

The data set can be described thus: turbidity assay; turbidity at 600 nm against protein concentration; 20 mM Tris-HCl, 150 mM NaCl pH 8.0, 20% (w/v) PEG2k; 96-well plate, quadruplicate; self-assembly into condensates. The note with it: other: turbidity assay.

With “PduP encapsulation peptide with its native linker fused to the N-terminus of mNeonGreen”, the “inflection of turbidity against protein concentration” value is listed as 33.1 µM ± 0.4 µM. “Two serial repeats of the PduP EP and its native linker fused to the N-terminus of mNeonGreen” yielded an inflection of turbidity against protein concentration of 15.5 µM.

Take “Three serial repeats of the PduP EP and its native linker fused to the N-terminus of mNeonGreen”: the inflection of turbidity against protein concentration came out at 19.7 µM.
